According to patent publication US6887705B1, “Tyrosine phosphorylated cleavage furrow-associated proteins (PSTPIPs)” (Genentech, Inc., priority 1997, dated 2005):
Entries after “also recorded” stand apart in the source; their conditions may differ. Read-outs that look alike come from different tables or passages of the source.

B1: W232A mutant of PST PIP, C-terminal FLAG (other)
chain: MMAQLQFRDAFWCRDFTAHTGYEVLLQRLLDGRKMCKDVEELLRQRAQAEERYGKELVQIARKAGGQTEMNSLRTSFDSLKQQTENVGSAHIQLALALREELRSLEEFRERQKEQRKKYEAIMDRVQKSKLSLYKKTMESKKAYDQKCRDADDAEQAFERVSANGHQKQVEKSQNKAKQCKESATEAERVYRQNIEQLERARTEWEQEHRTTCEAFQLQEFDRLTILRNALAVHCNQLSMQCVKDDELYEEVRLTLEGCDVEGDINGFIQSKSTGREPPAPVPYQNYYDREVTPLIGSPSIQPSCGVIKRFSGLLHGSPKTTPSAPAASTETLTPTPERNELVYASIEVQATQGNLNSSAQDYRALYDYTAQNSDELDISAGDILAVILEGEDGWWTVERNGQRGFVPGSYLEKLDYKDDDDK
notes: In vitro translated or expressed in COS cells; also called W232A PST PIP; PST PIP with an alanine replacement mutation at tryptophan232
B2: PSTPIP: murine PST Phosphatase Interacting Protein, 415 residues (SEQ ID NO:1) (protein)
chain: MMAQLQFRDAFWCRDFTAHTGYEVLLQRLLDGRKMCKDVEELLRQRAQAEERYGKELVQIARKAGGQTEMNSLRTSFDSLKQQTENVGSAHIQLALALREELRSLEEFRERQKEQRKKYEAIMDRVQKSKLSLYKKTMESKKAYDQKCRDADDAEQAFERVSANGHQKQVEKSQNKAKQCKESATEAERVYRQNIEQLERARTEWEQEHRTTCEAFQLQEFDRLTILRNALWVHCNQLSMQCVKDDELYEEVRLTLEGCDVEGDINGFIQSKSTGREPPAPVPYQNYYDREVTPLIGSPSIQPSCGVIKRFSGLLHGSPKTTPSAPAASTETLTPTPERNELVYASIEVQATQGNLNSSAQDYRALYDYTAQNSDELDISAGDILAVILEGEDGWWTVERNGQRGFVPGSYLEKL
modifications: Mus Musculus

Legend:
[1] = test system: PST PIP - PTP HSCF association; assay: Coprecipitation of PST PIP and PTP HSCF from co-transfected COS cells; assay type: cell-based
Description: (§1) COS-7 cells were transfected by electroporation. Briefly, 1.5×10^6 COS-7 cells were mixed with 24 μg total DNA in PBS and electroporated at 960 μF, […] (Bio-Rad™ Gene Pulsar™). Following electroporation, cells were seeded in 10 cm dishes and incubated for 3 days. 10-cm dishes of transfected COS cells were washed twice with ice-cold PBS, and lysed in 1 ml of M-RIPA (50 mM Tris 7.4, 1% NP40, 0.25% DOC, 150 mM NaCl, 1 mM sodium ortho-vanadate, 1 mM NaF plus Complete™ Protease Inhibitors (Boehringer Mannheim)). Lysates were incubated for 15 minutes with 100 μl UltraLink Immobilized Protein A/G™ (Pierce) at 4° C., followed by centrifugation for 5 minutes. Supernatants were collected and stored at −70° C. or directly immunoprecipitated. 5 μg of M2 or 12CA5 was added to 500 μl of lysate and incubated overnight at 4° C. Ultralink Protein A/G™ was added and incubation continued for 2 hours at 4° C. The immune complexes were washed 3 times with M-RIPA. The proteins were subjected to SDS-PAGE and transferred to nitrocellulose in 1X Transfer Buffer™ (Novex). Immunoblots were blocked overnight at 4° C. in 3% milk/PBS. To detect Flag-tagged PIP, blots were incubated with 10 μg/ml Bio-M2 (Biotinylated anti-FLAG monoclonal Ab, KODAK) followed by incubation in 10 μg/ml streptavidin-HRP (UBI). To detect HA-tagged PTPhscf, blots were incubated in anti-(HA)-peroxidase (Boehringer Mannheim) as per manufacturer's instructions. To detect phosphotyrosine, blots were incubated in HRP-conjugated 4G10 (anti-phosphotyrosine monoclonal, UBI) as per manufacture's instructions.
In vitro binding analyses between various PTP HSCF and PST PIP constructs were performed as previously described (Spencer et al, (1997), supra). Briefly, plasmids were transcribed and translated in vitro using the TnT Rabbit Reticulocyte Lysate System (Promega). Samples were diluted in 50 mM HEPES, pH 7.2, 1% triton X-100, 10% glycerol, 100 mM NaCl, and 2 μg/ml each of leupeptin, pepstatin, aprotinin and PMSF (lysis buffer). Samples were than reacted with GST fusion proteins at various concentrations, and the bound proteins were centrifuged using glutathione-sepharose beads and analyzed on SDS polyacrylamide gels. C-terminally-derived peptide inhibition studies were performed by incubating the GST fusion protein binding reactions in the presence of 10 μg/ml of the indicated peptides. Peptides were produced by FMOC-protected amino acids as previously described (Spencer et al, (1997), supra). In vivo interactions between various forms of PTP HSCF and PST PIP were also performed as previously described (Spencer et al, (1997), supra). Briefly, COS cells were transfected with various constructs, and after 48 hours, lysates were prepared and immunoprecipitated with antibodies to either the FLAG epitope contained at the C-terminus of PST PIP or an HA epitope contained at the N-terminus of PTP HSCF. The resultant blots were probed with anti-FLAG to detect PST PIP, anti-HA to detect PTP HSCF or anti-phosphotyrosine to detect levels of this modified amino acid in each protein.

[2] = test system: PSTPIP tyrosine phosphorylation; assay: Tyrosine phosphorylation of PSTPIP in COS cells co-transfected with V-src; assay type: cell-based; conditions: COS cells
Description: Baf3 cells were lysed in 1% Triton, 50 mM HEPES. 10% glycerol and 5 mM EDTA containing 1 μg/ml aprotinin, PMSF, leupeptin and pepstatin were 1 mM Sodium Vanadate and 10 mM Iodoacetic acid. Cells were treated with 0.1 mM Pervanadate for 4 hours before lysis. Immunoprecipitations were performed in the vanadate-containing lysis buffer using 1 μg/ml anti-PSTPIP polyclonal antibody and 400 μg of lysate protein at 4° C. overnight. Western blots were performed using 1 μg/ml affinity purified anti-PSTPIP or 1:5000 dilution of commercial 4G10 anti-phosphotyrosine monoclonal (Upstate Biotech). Signal was detected by HRPO-ECL reagents (Pierce). The C221-S mutant was as previously described (Cheng et al., (1996) supra). The PTP HSCF D197-A mutant was generated using PCR. Mutagenesis primer D197A.F ([…]) (SEQ ID NO:24), corresponding to nucleotide 591, and primer D197A.R ([…]) (SEQ ID NO:25) which corresponds to the stop codon, were used in PCR to generate a fragment that could be cut with Mscl and XbaI. pRK.HA.38 WT, a plasmid which encoded the wild type enzyme under the control of the cytomegalovirus promoter (Cheng et al., (1996) supra), was digested with Clal and Mscl and the resulting 600 bp fragment was ligated with the Mscl-Xbal PCR fragment into the Clal and Xbal sites of the pRK.tkneo. A plasmid encoding the V-src oncogene under the control of the SV40 early promoter was the kind gift of Dr. Art Levinson (CEO-Genetech, Inc.). NIH 3T3 cells and the COS-7 cells were cultured in high glucose DMEM supplemented with 10% FBS, 2 mM L-Glutamine, 10 mM HEPES pH 7.2 and pen-strep.
as §1
COS cells were transfected with a constant amount of either the wild type of W232A mutant of PST PIP and cotransfected with increasing amounts of a plasmid encoding the v-Src tyrosine kinase (Spencer et al, (1997), supra). Plasmid concentrations were equalized with an empty vector containing the CMV promoter. After 48 hours, lysates were prepare and immunoprecipitated with anti-FLAG monoclonal antibody. Precipitates were run on SDS polyacrylamide gels, blotted, and probed with either anti-FLAG antibody or anti-phosphotyrosine antibody as previously described (Spencer et al, (1997), supra). Bound antibodies were visualized using enhanced chemiluminescent reagents.

| Molecule | in vivo association (coprecipitation) of PST PIP and PTP HSCF [1] | efficiency of tyrosine phosphorylation in the presence of v-Src versus wild type [2] | tyrosine phosphorylation of PST PIP forms in the presence of dominant negative PTP HSCF C-S (substrate trapping) [2] | levels of phosphotyrosine in mutant versus wild type PST PIP, densitometry ([2]; increasing v-Src plasmid) | in vivo association (coprecipitation) of PST PIP and PTP HSCF ([1]; listed as PST PIP wt) | in vivo association (coprecipitation) of PST PIP and PTP HSCF ([1]; listed as wild type PST PIP) | tyrosine phosphorylation of PST PIP forms in the presence of dominant negative PTP HSCF C-S (substrate trapping) ([2]; listed as PST PIP wt) | tyrosine phosphorylation of PST PIP forms in the presence of dominant negative PTP HSCF C-S (substrate trapping) ([2]; listed as wild type PST PIP) |
| --- | --- | --- | --- | --- | --- | --- | --- | --- |
| B1 | complete lack of in vivo association; also recorded: neither coprecipitated with PTP HSCF | significantly more efficiently tyrosine phosphorylated | not hyperphosphorylated | 2-3 fold | – | – | – | – |
| B2 | – | – | – | – | found in a complex with precipitated PTP HSCF | in vivo association of the proteins | hyperphosphorylated | enhanced tyrosine phosphorylation |
